{
  "source": "patent US20180030144A1",
  "about": "(INNATE PHARMA, published 2018)",
  "binders": {"B1": {"name": "antibody 11E1 (antibody, human IgG1, V domains shown)", "VH": "EIQLQQSGPELVKPGASVKVSCKASGYAFTSYNMYWVKQSHGKSLEWIGYIDPYNGGTSYNQKFKGKATLTVDKSSSTAYMHLNSLTSEDSAVYYCARGYGNYKAWFAYWGQGTLVTVSA", "VL": "DAVMTQTPKFLLVSAGDRVTITCKASQSVTNDVAWYQQKPGQSPKLLIYYASNRYTGVPDRFTGSGYGTDFTFTISTVQAEDLAVYFCQQDYSSLTFGAGTKLELK", "notes": "Produced as chimeric human IgG1 with heavy chain N297Q (Kabat EU numbering); also called 1E11"}, "B2": {"name": "antibody 3C12 (antibody, human IgG1, V domains shown)", "VH": "B1 VH with E1Q, T30A, Y35N, E46D, T58S, Q62L, K63T, S77T", "VL": "DVVMTQTPKFLLVSAGDRVTITCKASQSVSNDVAWYQQKPGQSPKLLIYYASTRYTGVPDRFTGSGYGTDFTFTISTVQAEDLAVYFCQQDYSSLTFGAGTKLELKR", "notes": "Produced as chimeric human IgG1 with heavy chain N297Q (Kabat EU numbering); RTVAAP)"}, "B3": {"name": "antibody 6E1 (antibody, human IgG1, V domains shown)", "VH": "B1 VH with I2F, S44R, T58S, S85N, G101N", "VL": "B1 VL with D1S, A2I, V78M", "notes": "Produced as chimeric human IgG1 with heavy chain N297Q (Kabat EU numbering)"}},
  "note": "Numbering of substitutions follows the chain as printed. Numbers in names are those of the source.",
  "data": [
    {"target": "T1, human CD73 expressed at the cell surface (human, UniProt P21589 27-549)", "T1 sequence": "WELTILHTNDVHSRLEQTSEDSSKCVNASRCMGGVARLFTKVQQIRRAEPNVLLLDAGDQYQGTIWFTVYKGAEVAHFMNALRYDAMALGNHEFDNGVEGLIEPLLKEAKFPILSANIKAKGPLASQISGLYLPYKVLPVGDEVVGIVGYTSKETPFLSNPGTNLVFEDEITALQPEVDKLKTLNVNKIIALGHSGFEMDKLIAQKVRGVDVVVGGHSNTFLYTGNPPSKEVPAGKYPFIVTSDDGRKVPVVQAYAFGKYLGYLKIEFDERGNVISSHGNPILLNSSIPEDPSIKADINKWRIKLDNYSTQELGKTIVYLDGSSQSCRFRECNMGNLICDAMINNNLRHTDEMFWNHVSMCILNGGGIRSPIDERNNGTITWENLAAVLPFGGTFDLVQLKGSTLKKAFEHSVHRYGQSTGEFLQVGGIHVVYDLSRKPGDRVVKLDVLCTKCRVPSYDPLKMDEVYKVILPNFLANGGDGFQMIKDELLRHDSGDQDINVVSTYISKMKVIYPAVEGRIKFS", "assay": "cell-based or functional assay", "units": {"EC50 for neutralization of 5'-ectonucleotidase activity, mean over MDA-MB-231, H292 and A375 cells": "mg/L", "EC70 for neutralization of 5'-ectonucleotidase activity, mean over MDA-MB-231, H292 and A375 cells": "mg/L", "EC100 for neutralization of 5'-ectonucleotidase activity, mean over MDA-MB-231, H292 and A375 cells": "µg/mL"}, "values": [
      {"binder": "B1", "EC50 for neutralization of 5'-ectonucleotidase activity, mean over MDA-MB-231, H292 and A375 cells": 0.1, "EC70 for neutralization of 5'-ectonucleotidase activity, mean over MDA-MB-231, H292 and A375 cells": 0.15, "EC100 for neutralization of 5'-ectonucleotidase activity, mean over MDA-MB-231, H292 and A375 cells": 0.52},
      {"binder": "B2", "EC50 for neutralization of 5'-ectonucleotidase activity, mean over MDA-MB-231, H292 and A375 cells": 0.14, "EC70 for neutralization of 5'-ectonucleotidase activity, mean over MDA-MB-231, H292 and A375 cells": 0.18, "EC100 for neutralization of 5'-ectonucleotidase activity, mean over MDA-MB-231, H292 and A375 cells": 0.3},
      {"binder": "B3", "EC50 for neutralization of 5'-ectonucleotidase activity, mean over MDA-MB-231, H292 and A375 cells": 0.13, "EC70 for neutralization of 5'-ectonucleotidase activity, mean over MDA-MB-231, H292 and A375 cells": 0.19, "EC100 for neutralization of 5'-ectonucleotidase activity, mean over MDA-MB-231, H292 and A375 cells": 0.68}
    ]},
    {"target": "T2, recombinant human CD73-His extracellular domain protein (soluble dimer) (human, UniProt P21589 27-547)", "T2 sequence": "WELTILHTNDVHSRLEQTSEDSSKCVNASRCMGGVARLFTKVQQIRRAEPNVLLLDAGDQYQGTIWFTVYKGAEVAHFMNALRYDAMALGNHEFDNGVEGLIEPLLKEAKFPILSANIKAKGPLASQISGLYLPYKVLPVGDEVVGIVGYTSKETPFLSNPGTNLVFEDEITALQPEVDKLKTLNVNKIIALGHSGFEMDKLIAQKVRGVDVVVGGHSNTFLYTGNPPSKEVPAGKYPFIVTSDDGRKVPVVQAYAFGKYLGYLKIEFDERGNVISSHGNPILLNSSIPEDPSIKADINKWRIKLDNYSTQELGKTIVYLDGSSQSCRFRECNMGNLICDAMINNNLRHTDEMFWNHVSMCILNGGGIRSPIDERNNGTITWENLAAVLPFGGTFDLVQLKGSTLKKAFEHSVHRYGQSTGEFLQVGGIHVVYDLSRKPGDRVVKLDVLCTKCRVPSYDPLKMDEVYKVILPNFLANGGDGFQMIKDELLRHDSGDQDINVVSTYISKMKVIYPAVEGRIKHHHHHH", "assay": "cell-based or functional assay", "units": {"EC50 for CD73 blockade (enzymatic activity of soluble recombinant human CD73-his)": "mg/L"}, "values": [
      {"binder": "B1", "EC50 for CD73 blockade (enzymatic activity of soluble recombinant human CD73-his)": 0.41},
      {"binder": "B2", "EC50 for CD73 blockade (enzymatic activity of soluble recombinant human CD73-his)": 0.41},
      {"binder": "B3", "EC50 for CD73 blockade (enzymatic activity of soluble recombinant human CD73-his)": 0.33}
    ]},
    {"target": "T3, mouse CD73 expressed on a recombinant host cell line (mouse, UniProt Q61503 29-551)", "T3 construct": "whole, on cells; also called moCD73", "T3 sequence (looked up)": "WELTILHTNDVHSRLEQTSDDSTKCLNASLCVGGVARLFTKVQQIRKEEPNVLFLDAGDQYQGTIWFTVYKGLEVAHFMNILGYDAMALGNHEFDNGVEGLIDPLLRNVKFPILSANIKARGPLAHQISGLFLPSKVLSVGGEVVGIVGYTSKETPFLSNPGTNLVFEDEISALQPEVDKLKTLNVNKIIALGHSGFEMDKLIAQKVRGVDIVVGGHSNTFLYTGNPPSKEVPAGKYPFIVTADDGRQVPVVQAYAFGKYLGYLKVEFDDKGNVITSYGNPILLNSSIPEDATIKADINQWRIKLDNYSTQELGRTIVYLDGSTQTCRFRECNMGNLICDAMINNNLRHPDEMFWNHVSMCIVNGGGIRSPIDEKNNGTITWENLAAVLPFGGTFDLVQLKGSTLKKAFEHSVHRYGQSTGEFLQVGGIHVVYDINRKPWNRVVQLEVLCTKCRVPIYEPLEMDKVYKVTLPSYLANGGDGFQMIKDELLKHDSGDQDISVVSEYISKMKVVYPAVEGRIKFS", "assay": "flow cytometry titration on a mouse-CD73-expressing recombinant host cell line, median of fluorescence", "values": [
      {"binder": "B1", "binding result": "no binding (tested: about 30-40 µg/ml)"},
      {"binder": "B2", "binding result": "no binding (tested: about 30 µg/ml)"},
      {"binder": "B3", "binding result": "no binding (tested: about 30-40 µg/ml)"}
    ]},
    {"target": "T1, human CD73 expressed at the cell surface", "assay": "flow cytometry on MDA-MB-231 cells, medium (no APCP)", "procedure": "MDA-MB-231 cells are available from ATCC (reference HTB-26). 10⁵ cells resuspended in PBS/0.2% BSA/0.02% NaN3 (named “staining buffer”) are distributed into round bottom 96W-microplates. Dose-range of anti-CD73 antibodies was added to the plates and cells are incubated for 45 min at 4° C. Cells were washed three times in staining buffer by spinning plates at 400 g for 3 min at 4° C. PE-coupled goat anti-mouse or goat anti-human IgG Fc fragment secondary antibodies (Beckman Coulter) diluted in staining buffer were added to the cells and plates are incubated for 30 additional minutes at 4° C. Cells were washed three times as described above and analyzed on an Accury C6 flow cytometer equipped with an HTFC plate reader.\nCells were pre-incubated at 37° C. for 30 minutes in the presence or not of 200 μM adenosine 5′-(α,β-methylene)diphosphate (APCP), followed by addition of antibodies. APCP is an analog of ADP and binds irreversibly to the active site of CD73. When bound by APCP, CD73 changes conformation from an “open” conformation to a “closed” conformation. mAbs 11E1, 8C7, 3C12 and 6E1 bound MDA-MB-231 cells with good affinity both in the presence and absence of APCP. In the presence of APCP, the EC50 was similar to that observed in the absence of APCP. The plateau for maximal binding of 11E1, 8C7, 3C12 and 6E1 was higher in the absence of APCP than in the presence of APCP, while the inverse was true for AD2.", "units": {"EC50": "mg/L"}, "values": [
      {"binder": "B1", "EC50": 0.0611},
      {"binder": "B2", "EC50": 0.0572},
      {"binder": "B3", "EC50": 0.0584}
    ]}
  ]
}
